Experiment: soluble on expression in E. coli; label from the status in PepcDB or PDB records

Row | Sequence | soluble on expression in E. coli
1 | MGSDKIHHHHHHMGEMVELKKELLRDVDLAERLLGRERPVKSEIEIRGKITRSTIEEISRIKKEPEWMKRLRLRSLELFYKLPTPKWLVGIDVIDLDEMIVYSKPETERASSWEELPKEIREFYERLGLPEIEARFLSGLSAVFDSETVYARVKKYLEEKGVIVMPIEEAVQKYPDLVKRYFMRVFPPSDHKFAALHGALWSGGTFIYVPRGVKIREPIESFFLIGKSGEGQFEHSLIVADEGAYVEWIEGCSAPRLTKFSFHDGMVEAYAHRNATIKIITVQNWSKDVINLNNKRAIAEEGARVDWVEGSIGSKMTFVYPSTILKGDNSSSRSAVVTIAKGPYLKDSGSKMIHVGRNTRSQVINKTISADGGINVYRGIIRIVKGARNAVANVECESLILDDKSKAHTYPHNQVDEPTASVNHEATTGRLTEPQLFYLTSRGLTEEEAKSLIVLGFLEDVLKELPFEYANVLTKVVRLEFSEYGAFG | not soluble
2 | MISIPKDEFQQIFVKDLMISSEKVAHVQIGNGLEHALLVLVKSGYSAIPVLDPMYKLHGLISTAMILDGILGLERIEFERLEEMKVEQVMKQDIPVLKLEDSFAKALEMTIDHPFICAVNEDGYFEGILTRRAILKLLNKKVRQHNR | not soluble
3 | MGSDKIHHHHHHMTPTVMVVDESRITFLAVKNALEKDGFNVIWAKNEQEAFTFLRREKIDLVFVDVFEGEESLNLIRRIREEFPDTKVAVLSAYVDKDLIINSVKAGAVDYILKPFRLDYLLERVKKIISSTPRVTVSLRKNIEDLEITLKFEDIVRKEIKRSNRTGSRFCVMYVKFEDIMRDYETIKKFFRETDYVLPISASEYLFVLTLTGKHGIEAVTRRMKEKLSERFSYTYVCYPDDGKTYEEIILTLKDRMAKPRGNES | not soluble
4 | TVPDFSAFAVEVPALKSNDEAIDAQIDKLRERFGELKDTKRKLKTDDFAIIDIEAAIDGEKLEEATTEGMSYQVGAGDLIDGLDTALRGLKAGESAEFTTTLKAGEHEGKEAAVTVTVQQTKERKLPELDEEFVQTASEFDTVEELRESIAEQVAEQAKAEQATAIRDEVLKAALAEATFELPEGVVEDQIHAQLHQLLNQVGGDEAALNAALEAQGTSREQFDADNRKNSEEAVRTQLFLDALAEQEQPEVSQQELTDHILFTAQSYGMDPNQFITQLQQSGQIGNLFSDVRRGKALAAAICRVSVKDDEGKAVDPSEYFGEEEESAEESE | not soluble
5 | SGSHTALIEVKGMIADDEPASADNIVTALRAAFKDEGTKGIVLRINSPGGSPVQSGYIYDEIRRLRGEHPNVKVYAVISDLGASGAYYIASAADQIYADKASLVGSIGVTAASFGFVGTMEKLGVERRVYTSGEHKSFLDPFQPQKPEETQFWQQVLDTTHKQFIDSVKKGRGDRLKVEGHPELFSGLVWSGEQALQLGLIDGLGNASYVAREVVKEKKIEDYTVQESPFDRFAKKFGASVAERLALWMGWQGPVLR | not soluble
6 | DDEITREPRKVVLHRGSTGLGFNIVGGEDGEGIFISFILAGGPADLSGELRKGDRIISVNSVDLRAASHEQAAAALKNAGQAVTIVAQYRPEEYSRQHA | soluble
7 | MSLKWLKKQAELYPQKQFLNDSTFAQINQEVNKMAEHLAPLIDNQSRVALLSENSVEMAVVLFALLGLSKEVLLLNRHLTEYELADQIKELKIDKVFTSDLLTEKVTDSISFSEIWTSNPCPVSLSADFPDEKIAVIMNTSATTGKFKSVPITWGMISNHVKASKETLGAYDNDNWLVILPMFHVSGLSIIMRTLYNATSATVVDKFDENQLLEMINSGKINMVSLVPTLLTRIADKLHSNNLRLILLGGEFIPQPLIKKCQELGLPIYKTYGMTESFSQSVTFNILDFPDKTSSVGRPLPGVEIEIRQADLAGVGEIWLKSPMLMKAYLGQKPYGTAFETGDIGYLDTDGFLYLLNRRKDIIISGGENIYPKEIEDLVYSLPEIKECALVAKPDAKWGQVPILFVSGNISQEKLENFLTEKLAKYKRPQSITFMDELPKNASGKILRKELKEGHHHHHH | soluble
8 | MGSDKIHHHHHHMMSTIYRHLSTARPALTKYATNAAVKSTTASSEASTLGALQYALSLDEPSHSWTKSQLKEIYHTPLLELTHAAQLQHRKWHDPTKVQLCTLMNIKSGGCSEDCKYCAQSSRNDTGLKAEKMVKVDEVIKEAEEAKRNGSTRFCLGAAWRDMKGRKSAMKRIQEMVTKVNDMGLETCVTLGMVDQDQAKQLKDAGLTAYNHNIDTSREHYSKVITTRTYDDRLQTIKNVQESGIKACTGGILGLGESEDDHIGFIYTLSNMSPHPESLPINRLVAIKGTPMAEELADPKSKKLQFDEILRTIATARIVMPKAIIRLAAGRYTMKETEQFVCFMAGCNSIFTGKKMLTTMCNGWDEDKAMLAKWGLQPMEAFKYDRS | not soluble
9 | MKSGEKDYSVKEAMIFSQRIAQLSKALWKCVEKDWQQWIKPYDLNINEHHILTIAYHLKGASISEIAKFGVMHVSTAFNFSKKLEERGYLVFSKKEDDKRNTYIEITDKGEELLLRLMEEYDPENNSVFNGALALRNFYGKFPENIELIAILRNIYGQDFIDIFEKSLEDIEENFTESDQKLVKK | not soluble
10 | MLTIARRFSGSSICRKQITVGSNNIQVIKNIQDREYEAIWKTIGSTRSDLKKDDIKKFKEAWGNDYHQTLTFLKDSDRLIASNSHVVFRPLKDSKGLENLVFRGNLWISPDVRGSEIMDITDKQSYDVGFSVGNNSMAYATKKTMDQYKNLTGSMDHLHKYYVSNYDFGDLCIPKDLDTSGIVVKNARDVPDTDILKYDAKVFKYERSKYVLGQIREDFGRVAYNEKGDVIGIGAISVYPSGECAITPMYADDIRIARTILKNILEEMTLDAEKYWRLQIRSHDQHTGSYGWIRPFLSTMTHRSEVCTLMCDHKEKGMDFSKVYSTFHADNCPI | not soluble
11 | GPGSMHASVVLNMCTASQYTRRTLQSLFERREVDLSALVHVLADNAGYLAATQQGCISLMRVFELCDAAQKAELVRELLPKLAALSMDAFANYMVQCAIEHSDRATAAQYVVAHFTGNILQMSCNKHSSNVLEVVLRCCGEVPAVRRLFLDELVFNPAALKEVVGDLYGNFVVQALIGVVTNPMEFKRVEDRLRPALVGCQFAAKIEGKIKAKRPVPPHAGGAVHHHSYPQSRQQRPLSVPCTMPDHVGPCAPSVRATIALPQAPVMSLGEARVPTQGYCHRPYDCNPLCCAPLAAEQQQPQNVVQAPSGHVYPVDHFQFPILKERTAARAAGAVPVTDGEDSGPVYGPSPAARRHLQQQQQQAFRPPFNIMC | not soluble
12 | MFNRGNTRVDVSSEPGTSGRYPERMIDQLPANYPCAKLKLDQFFLQWLSEHQDLVSTLVEDIQAGRPIHAPTAPVGPSPLSPSTAHMIFASTPPISPSKTRSPGTPLSPARRSTTTLGGSQKRGPLVSIPQFYFPTQSSNAGQGSDPATRDFLQRAEAAYKTDGGAAGLGQKAFVKMMQEVCELPSMVAYSLFKRLTGCEAGEEEGAAVPRDTFIKFWTGRGLVTAPPPKRAFDSLRPDGQDYLTFADFWPMMECVLRYHPGLEFLAETQEFQRKYAETVIHRIFYSLNKCGSGRLTFREFRSGELMDALYALDRENDINKILKFFSYEHFYVIYCKFWELDQDHDFQLDKTDLAHYSNCALSYVIVDRIFEEAPRKFKAGTPPGKMCYEDFVWFILSEEDKTTDTALTYWFRCVDLDGDGVIRPREMLYFYEEQLRRLEGWNQEPVQFEDLLCQLHDMLSPAKEGAFTLRDLKRTKPQSGLFFSSLFSLHKFVGFENRDPFAQRAEAAEFTGLSDWDKFAKIEYFRLASEDDQQDTAGGAMDTDEQI | not soluble
13 | MSECSASTSQLSTFCVNEIPWKLVPQTCDEFSEYEFIDEKYRRLSDVESFVWKWSPCGRYGIDLPGGRDVINQQLRDRMAVFDLHTNKWTLYTMDRGAFEIPRVCFLYWARNDIIGTITLVKDYEAGPDDEIPLKFKQSFFYVSHETQTLVYSGSCKYRTNKTIVASYWYHIFENRRGEPFIDHNNYLWLVFSNGVDSLILLPFIPTSTCFKAKCVSFDMNDIVSQFTGIRVFLDPFVSSHYVPWVYRNDVNFFIRIDSHSFIEEQNRDYGLDPQIDNPETKPHRGVFQLRVNLKDVIEKGEKDAIHAVNPETIETRFNRGDIELWRKISDELRQEHQSIAQHGKMVVVQRWSHFTVDMGLSKKMRTRVADLDARDYCCSHKPRNSSFCCIDLDSERIKAVDALILGTDVVLPHPSGSVFLFRYKENYGMSYCELPFFQPLSLKLKCIQVLKESVEIDPSYYRIKCCLKMQEELEKETAENLCTINIQQ | not soluble
